According to the domain aggregation screens of Martell et al. (2025):

Assay: soluble fraction after stress (log2 fold change); higher = more stays soluble; pooled small domains, quantitative proteomics
Settings: stress: 75 degC
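Note: 20 min heating vs room temperature control held 20 min.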

Sequence | soluble fraction (log2)
HMASVGTHIKRLRAAKRMTQEELAEQLHVTRQAVSAWETGKALPDVEMLERIAAALDADVTEVIYGA | -0.346
HMATAATGIINNNYVNVRSGPATTYNIVGRLDQGSSIEILGSKNDWYQIKTKQLNGWVKNDFINLQK | -0.283
HMATETELNLQLMRIIDELHTDHNTWGSRKITDYLRLQGYEINRKRIQRLMDVMDIQVVYPK | -2.07
HMATEVEVPDVVGRQMALATQLLEARKLRVNVAEIYDEKTPPGQVVSQSPEAGSSVKEERVVTIYVSR | -0.154
HMATGGKIYIGMNDNGKVVGVSDADKLLEDIPNKVRDVLGIIVDVNLLEENGLKYIEIDVPPYSN | -0.698
HMATGIKAVDNVFGWMNLEQVAKTVGLDIPSVLRASGLPEDTPVDISIKKIPGVDDEELKDSLRQYIEKS | -0.107
HMATGTVKWFNPNKGFGFIQQDDASKDVFVHSNELNGVYINEGDKVEFDVVETEKGLSAQNIKK | 0.222
HMATHGRRAVIELREKIVSGELPGGTRLFEVSLAETLDISRTPVREALSRLAEEGLLDRLPNGGFVVRR | -1.18
HMATIGVGSKVTLTTYVDWVGNGLLKTRDFYFVSELNGKRAVLRADSMNGAIYAAVNIDNLRI | -3.66
HMATINGIEKYLSSGLIPGIGPHTAKKLVEKFGLDTLDIMQYNPDRLTEVEGIGDKKAAKISEAFQEQK | 0.00381
HMATKVNSGVTVRDLAELLGLSSADLIKKLMTMGEMATLTQTLTDDSVKAIADEYDRKIEIVSAAQ | 0.536
HMATLTPLGRLQLARYHAQERATLAATAERFQVSTTTVRRWVGRYHQVVAAGGRPTTADMQDRPSRP | -2.07
HMATMSIDERILEIRSRAGLTQQEMADRLFVTRQAVSRWERGETVPGIDTLRLIAEAFDVRVDQILEL | -1.66
HMATQMSSARRGIATDEMKQVAKDEDVTLDWLLPKIAIGSIIIPSNNVRPQKIHNVGIGKGMKTKVN | 0.195
HMATTTEPTSPPAATASLEAKINWLFLIFRNKKTVTASEQKFHAEDASTVVGKETLTDDGTTMTKGETAAG | -0.0674
HMATVELELKPEELRAGMILTKDLISGTGMMLLNKGVTLDNVKVEAIQRYYQLDPPLHGVFALVHGK | -1.32
HMATVGENIRRYRKAQNLSAAKLAEKVGLTQGAILHYERGIRTPGISQLEKIAHALNVSPRM | -0.144
HMATVPNVVGLSEEKAKSRLANNGLNVSVTTEEVSDKSKDGIVSSQTSEGDTVKQGATITITVGKYVEK | 0.111
HMATYDIDALKVDLPSAKELAQFVYDKTDGLVSLDLIGKPKEEQYIVAKNALEGKKVPAEYLTGFNPY | 0.702
HMATYTPYDKQGAKLWRVTAYLGMDSVTGKQRNMKKGGFKTKKEAQLYYNQVKLDFENGTLDQ | -1.36
HMAVEQLKSQIGGFLKANREQSFSAQNMADGLRMNSAAGYQDVVNAMNALVRDGEAVEKDGQFSYNVN | 0.116
HMAVETYRVKKSDTMQTIADRFGLSVEELLEYNQAYKTRELRARDILIIPSRKERKKLQQQKAQAAAQVVQ | -0.632
HMAVGTASNLIGKDIEAYAPIDGSQSSDDTKTISGKVESVHIKDGVVYMNVKDSQSENIIEVEYGALIKVN | 0.251
HMAVKPIDRLRSLMAESNVTDAELQKVVADKGHYAADAPIDSYSEKFISGWLIKYWSQILNLINADRTVL | -0.691
HMAVKTEHGRIWKALPEGQDGYREDVPMFTSKSMYDGSAGIGIFLIRLYEATSDERWLKEAEEAAAHII | 0.157

Sequence | soluble fraction (log2)
HMAVLEGPAGKLGIVRFEANRSFTGMGHERFSSADQAFGTKPAAVVASRLFATGQVAGVHVYGNIITVELA | 0.632
HMAVNDPDEKFIELGIPADWVQVVRKAGFQTVEALKTVENPNKLHQELSGLNKKMKLGLKTLSQDEVKDWF | 0.0688
HMAVPMTPGELVGSRVRVLWWKDGRGEVVALARGHQATLPARSEEPLRTGADAVVLEADEGTLVVTS | -0.13
HMAVSGRMMVYEYIRQQMREGSLLPGSVLDLPAISHKLGISNTPLRDSLIRLEAEGYLTIYPRSKVVIN | -3.03
HMAVTGRVDLRIKPWGYVSVDGAAKVSSPPTMQLKLAPGRHEIEITNPAGAAVTKTVDVIAGKSVTVQHN | -0.0874
HMAVTKVKVITESSNLNIRKGPGTDQPIVGKAAHHEIITLVNKSNDQWWLVRTNDGEEGYSYSRYLEPVT | -0.667
HMAVVEVATTTATEYKVEKGHHFKVGDFVMFKTGAKSYAITAIDTTSPIFDKITVGTTLGEAIPVGGTLM | -1.62
HMAVVIPDVKGMTIEEAAPFLAEKGIRYNIIDSVFSKDVDPGAIVEIVPTPGSKVKEGRIVFVTINAK | -0.774
HMAVVQMVDRPGGLDELLKDVVRAGVNFANAYGRTASDGNSAFFVIDIQDIPGARQKLADVGLQILADEAV | -0.383
HMAWAVDVGVVGLFPGKAVLVIDGGAPRTVPVGANVGGVRLLAVDQGSATVEIGGKRQRLAIGQHAH | -1.69
HMAWIGEHTVTSEDTLSHIALKFYGHATPPYYKLIYEANKAIIGDNMNIIVPGQVLRIPALPEEL | -1.35
HMAYLTVPAVIAKDTKKSIQLLESKGFEVVIQDSIYTDTLARGTVIKQLPDPNATVKINRTVYLTVNRYTP | -2.41
HMAYQQITIKANVVNVRQGPGLSYDVMSQANKGETMNVISQKNNWYQVRLSGDKIGWVASWLVDNT | -3.08
HMAYWVVKNNQVSLQINRSNYQITSTARALSNGNLGDEIDVKVLQSGVIKKAVVIGKGQVELLR | -3.24
HMDAHIGTLTPRERETLHHLAIGHSNKVIAKKLNLAESTVKAYVQSILRKLGLSSRVQAAVYAIQHDIR | -0.702
HMDAIDPKTVTSWADLWKPEYKSSLLLTDDAREVFQMALRKLGYSGNTTDPKEIEAAYNELKKLMPNVAAF | -0.193
HMDAIDQDGNHMTFKRWGEQLQEAFQALEAYDTDKAKTILNELIKFPIDSDLNNALKGILSNIDEMMA | -0.914
HMDAINITTYKGQITLTGTKTGTLVGIYNTAGMLVKSMMSKGEKLYFDNLPSGVYIIKVGEEEPRKVQVI | -2.16
HMDAKIEYTMSDLIENRLINSDDASMRREKLSEILKIGYGNGKKTLHKLNSFGITREEFEEAMKEVNSH | 0.0731
HMDAKIKDYADAYAKMDPQQAASLFNNMTTGSLDLVAKILENIPANKRAAILEKMDVNAAAQVTEKMR | -0.0156
HMDAKSRFQEWVQAETGITPTYRIIGDSGPDHAKTFIAQVLLGERVVGEGVGSSKRAAEQAAAQAALAAM | -0.0803
HMDAMMQRLERLKELASSADGSKDYLILGPLRRDLAKLMALEDPKLRQGAEELDRKILAILS | -0.477
HMDAPHPSVVQVYFESRDRSWTYYNDRFDLHEGDLVYVEGKLEGVRGRVVEVSYNFRIKLADYKRVIAVA | -3.29
HMDASSAVQFGSLLRDARRRQGLSQAELGGDKYSGSYISHLESGRRVATPEVIEFLSRRLGVSPLEWGVS | -0.0146
HMDASSTGFLGKHVQIVGLVSQPHLNGRRGVASRFDSNRRRYLVRLDEIDGHAEVVAFRPDNLVLSNLL | -0.627
